# Data: IntAct's records for PubMed 29039417
# B1: BBSome complex member BBS4 (Homo sapiens), Q96RK4 (parent)
# chain: MAEERVATRTQFPVSTESQKPRQKKAPEFPILEKQNWLIHLHYIRKDYEACKAVIKEQLQETQGLCEYAIYVQALIFRLEGNIQESLELFQTCAVLSPQSADNLKQVARSLFLLGKHKAAIEVYNEAAKLNQKDWEISHNLGVCYIYLKQFNKAQDQLHNALNLNRHDLTYIMLGKIHLLEGDLDKAIEVYKKAVEFSPENTELLTTLGLLYLQLGIYQKAFEHLGNALTYDPTNYKAILAAGSMMQTHGDFDVALTKYRVVACAVPESPPLWNNIGMCFFGKKKYVAAISCLKRANYLAPFDWKILYNLGLVHLTMQQYASAFHFLSAAINFQPKMGELYMLLAVALTNLEDIENAKRAYAEAVHLDKCNPLVNLNYAVLLYNQGEKKNALAQYQEMEKKVSLLKDNSSLEFDSEMVEMAQKLGAALQVGEALVWTKPVKDPKSKHQTTSTSKPASFQQPLGSNQALGQAMSSAAAYRTLPSGAGGTSQFTKPPSLPLEPEPAVESSPTETSEQIREK
# partner: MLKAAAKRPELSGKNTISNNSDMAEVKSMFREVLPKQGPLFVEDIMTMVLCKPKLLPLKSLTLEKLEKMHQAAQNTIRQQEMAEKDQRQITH
# Variants of: B1
# Settings: with bbip1_human BBIP1, A8MTZ0
row,Variant,effect of a mutation on the interaction
1,A504K,with no effect
2,K519A,with no effect
3,P503E,with no effect
4,P494A,with no effect
5,P494E,with no effect
6,P494K,with no effect
7,E500K,with no effect
8,E500A,with no effect
9,S513A,with no effect
10,E514K,with no effect
11,P498A,with no effect
12,P498K,with no effect
13,T492E,with no effect
14,T492A,with no effect
15,S496E,with no effect
16,S496A,with no effect
17,E518K,with no effect
18,P495A,with no effect
19,P495E,with no effect
20,S508E,with no effect
21,S508K,with no effect
22,E506A,with no effect
23,E506K,with no effect
24,E502A,with no effect
25,E502K,with no effect

row,Variant,effect of a mutation on the interaction
1,E511A,with no effect
2,T510E,with no effect
3,T510K,with no effect
4,T510A,with no effect
5,Q515K,with no effect
6,Q515A,with no effect
7,R517E,with no effect
8,F491K,with no effect
9,P501K,with no effect
10,V505E,with no effect
11,V505K,with no effect
12,T512K,with no effect
13,I516K,with no effect
14,I516E,with no effect
15,P509K,with no effect
16,P509E,with no effect
17,L499E,with no effect
18,L499K,with no effect
19,L499A,with no effect
20,S507A,with no effect
21,S507E,with no effect
22,S507K,with no effect
23,K493A,with no effect
24,K493E,with no effect

# Now from value to variant:
row,effect of a mutation on the interaction,Variant
1,with no effect,A504E
2,with no effect,K519E
3,with no effect,P503A
4,with no effect,P503K
5,with no effect,L497E
6,with no effect,L497K
7,with no effect,L497A
8,with no effect,S513K
9,with no effect,S513E
10,with no effect,E514A
11,with no effect,P498E
12,with no effect,T492K
13,with no effect,S496K
14,with no effect,E518A
15,with no effect,P495K
16,with no effect,S508A
17,with no effect,E511K
18,with no effect,Q515E
19,with no effect,R517K
20,with no effect,R517A
21,with no effect,P501A
22,with no effect,P501E
23,with no effect,V505A
24,with no effect,T512A
25,with no effect,T512E
26,with no effect,I516A
27,with no effect,P509A
